# Data from article PMC6107515.
# pKd: −log10 of the molar value. Read-outs that look alike come from different tables or passages of the source.
# Columns and labels:
# [1] = molecular target: human complement Factor H (human) (UniProt P08603); experiment: SPR; Biacore X100; FH coupled to a CM4 chip, recombinant PspCs injected at five increasing concentrations (kinetic titration); PBS-P+ buffer; fitted with a 1:1 binding model
# [2] = molecular target: human complement Factor H (human) (UniProt P08603); experiment: as above; remark: listed apart in the source
# human complement Factor H (human), sequence (P08603 19-1231): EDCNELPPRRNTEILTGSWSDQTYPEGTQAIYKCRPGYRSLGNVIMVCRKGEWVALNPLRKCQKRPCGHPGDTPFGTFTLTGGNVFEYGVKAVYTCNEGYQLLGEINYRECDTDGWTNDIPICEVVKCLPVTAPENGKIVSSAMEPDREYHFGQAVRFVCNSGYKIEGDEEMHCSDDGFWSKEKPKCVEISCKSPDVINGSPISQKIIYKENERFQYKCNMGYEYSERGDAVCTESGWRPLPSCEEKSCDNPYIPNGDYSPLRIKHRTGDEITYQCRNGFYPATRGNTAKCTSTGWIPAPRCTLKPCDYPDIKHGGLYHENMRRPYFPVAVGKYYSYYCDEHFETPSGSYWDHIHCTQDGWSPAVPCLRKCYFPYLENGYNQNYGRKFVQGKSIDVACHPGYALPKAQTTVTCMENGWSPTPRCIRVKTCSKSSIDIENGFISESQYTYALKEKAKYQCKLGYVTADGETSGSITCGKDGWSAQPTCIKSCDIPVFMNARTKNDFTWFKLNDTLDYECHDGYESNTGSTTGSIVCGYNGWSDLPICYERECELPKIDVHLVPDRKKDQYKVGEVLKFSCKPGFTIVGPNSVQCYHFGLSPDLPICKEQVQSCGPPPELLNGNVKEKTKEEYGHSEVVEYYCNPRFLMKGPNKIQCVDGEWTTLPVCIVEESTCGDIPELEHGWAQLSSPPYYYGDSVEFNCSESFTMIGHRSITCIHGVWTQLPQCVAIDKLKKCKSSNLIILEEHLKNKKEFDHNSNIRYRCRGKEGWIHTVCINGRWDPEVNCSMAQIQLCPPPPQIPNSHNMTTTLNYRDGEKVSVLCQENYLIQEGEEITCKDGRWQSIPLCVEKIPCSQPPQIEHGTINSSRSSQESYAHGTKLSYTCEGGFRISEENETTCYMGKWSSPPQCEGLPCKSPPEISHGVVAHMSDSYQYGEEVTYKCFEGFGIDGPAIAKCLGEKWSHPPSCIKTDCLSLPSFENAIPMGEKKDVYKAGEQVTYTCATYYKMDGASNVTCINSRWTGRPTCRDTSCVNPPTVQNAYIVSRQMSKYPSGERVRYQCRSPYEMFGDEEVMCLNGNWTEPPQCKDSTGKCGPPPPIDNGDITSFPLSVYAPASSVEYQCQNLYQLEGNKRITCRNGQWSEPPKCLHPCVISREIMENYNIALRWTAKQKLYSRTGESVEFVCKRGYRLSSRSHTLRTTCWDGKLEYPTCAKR
substance,measurement,setting,value
recombinant PspC (D39) (domain or fragment),pKd,[1],10.05
same,pKd,[2],10.07
same,koff,[2],4.3e-05 s⁻¹
same,kon,[2],480000 M⁻¹ s⁻¹
